In US9605283B2, “Microorganism modified for the production of 1,3-propanediol” (INSTITUT NATIONAL DES SCIENCES APPLIQUÉES, priority 2012, dated 2017):
Changes are numbered by the printed parent chain. Names may count otherwise.

B1: Bacillus subtilis (L)-malate dehydrogenase Bs-Mdh, wild type, SEQ ID No. 126 (Bacillus subtilis subsp. subtilis str. 168) (protein)
chain: MGNTRKKVSVIGAGFTGATTAFLIAQKELADVVLVDIPQLENPTKGKALDMLEASPVQGFDAKITGTSNYEDTAGSDIVVITAGIARKPGMSRDDLVSTNEKIMRSVTQEIVKYSPDSIIVVLTNPVDAMTYAVYKESGFPKERVIGQSGVLDTARFRTFVAEELNLSVKDVTGFVLGGHGDDMVPLVRYSYAGGIPLETLIPKERIDAIVERTRKGGGEIVNLLGNGSAYYAPAASLTEMVEAILKDQRRVLPTIAYLEGEYGYEGIYLGVPTIVGGNGLEQIIELELTDYERAQLNKSVESVKNVMKVLS
notes: hexa-His (N); made in house; host or cells: E. coli BL21 (DE3) star
B2: Bacillus subtilis malate dehydrogenase Bs-Mdh variant R87C, SEQ ID No. 154 (Bacillus subtilis subsp. subtilis str. 168; R87C) (protein)
chain: B1 chain with R87C
B3: Lactococcus lactis (L)-lactate dehydrogenase Ll-LdhA, wild type, SEQ ID No. 120 (Lactococcus lactis subsp. lactis Il1403) (protein)
chain: MADKQRKKVILVGDGAVGSSYAFALVNQGIAQELGIVDLFKEKTQGDAEDLSHALAFTSPKKIYSADYSDASDADLVVLTSGAPQKPGETRLDLVEKNLRITKDVVTKIVASGFKGIFLVAANPVDILTYATWKFSGFPKNRVVGSGTSLDTARFRQALAEKVDVDARSIHAYIMGEHGDSEFAVWSHANVAGVKLEQWFQENDYLNEAEIVELFESVRDAAYSIIAKKGATFYGVAVALARITKAILDDEHAVLPVSVFQDGQYGVSDCYLGQPAVVGAEGVVNPIHIPLNDAEMQKMEASGAQLKAIIDEAFAKEEFASAVKN
B4: Escherichia coli (L)-malate dehydrogenase Ec-Mdh, wild type, SEQ ID No. 124 (Escherichia coli K-12) (protein)
chain: MKVAVLGAAGGIGQALALLLKTQLPSGSELSLYDIAPVTPGVAVDLSHIPTAVKIKGFSGEDATPALEGADVVLISAGVARKPGMDRSDLFNVNAGIVKNLVQQVAKTCPKACIGIITNPVNTTVAIAAEVLKKAGVYDKNKLFGVTTLDIIRSNTFVAELKGKQPGEVEVPVIGGHSGVTILPLLSQVPGVSFTEQEVADLTKRIQNAGTEVVEAKAGGGSATLSMGQAAARFGLSLVRALQGEQGVVECAYVEGDGQYARFFSQPLLLGKNGVEERKSIGTLSAFEQNALEGMLDTLKKDIALGEEFVNK
B5: Escherichia coli malate dehydrogenase Ec-Mdh variant R81A D86S, SEQ ID No. 170 (Escherichia coli K-12; D86S/R81A) (protein)
chain: B4 chain with R81A, D86S
B6: Escherichia coli malate dehydrogenase Ec-Mdh variant R81A M85E I12V, SEQ ID No. 166 (Escherichia coli K-12; I12V/M85E/R81A) (protein)
chain: B4 chain with I12V, R81A, M85E
B7: Escherichia coli malate dehydrogenase Ec-Mdh variant R81A, SEQ ID No. 156 (Escherichia coli K-12; R81A) (protein)
chain: B4 chain with R81A
B8: Escherichia coli malate dehydrogenase Ec-Mdh variant R81A M85Q, SEQ ID No. 158 (Escherichia coli K-12; M85Q/R81A) (protein)
chain: B4 chain with R81A, M85Q
B9: Escherichia coli malate dehydrogenase Ec-Mdh variant R81A M85Q I12V, SEQ ID No. 164 (Escherichia coli K-12; I12V/M85Q/R81A) (protein)
chain: B4 chain with I12V, R81A, M85Q
B10: Escherichia coli malate dehydrogenase Ec-Mdh variant R81A I12V, SEQ ID No. 162 (Escherichia coli K-12; I12V/R81A) (protein)
chain: B4 chain with I12V, R81A
B11: Escherichia coli malate dehydrogenase Ec-Mdh variant R81A M85E, SEQ ID No. 160 (Escherichia coli K-12; M85E/R81A) (protein)
chain: B4 chain with R81A, M85E
B12: Escherichia coli membrane associated (L)-lactate dehydrogenase Ec-LldD, wild type, SEQ ID No. 122 (Escherichia coli K-12) (protein)
chain: MIISAASDYRAAAQRILPPFLFHYMDGGAYSEYTLRRNVEDLSEVALRQRILKNMSDLSLETTLFNEKLSMPVALAPVGLCGMYARRGEVQAAKAADAHGIPFTLSTVSVCPIEEVAPAIKRPMWFQLYVLRDRGFMRNALERAKAAGCSTLVFTVDMPTPGARYRDAHSGMSGPNAAMRRYLQAVTHPQWAWDVGLNGRPHDLGNISAYLGKPTGLEDYIGWLGNNFDPSISWKDLEWIRDFWDGPMVIKGILDPEDARDAVRFGADGIVVSNHGGRQLDGVLSSARALPAIADAVKGDIAILADSGIRNGLDVVRMIALGADTVLLGRAFLYALATAGQAGVANLLNLIEKEMKVAMTLTGAKSISEITQDSLVQGLGKELPAALAPMAKGNAA
notes: as for B1
B13: Escherichia coli (L)-lactate dehydrogenase Ec-LldD variant V108C, SEQ ID No. 174 (Escherichia coli K-12; V108C) (protein)
chain: B12 chain with V108C
notes: DCIP assay

Assays:
[1] = substrate: O=C(O)C[C@H](O)C(=O)O; experiment: purified protein, by the assay type; assay type: biochemical, Bacillus subtilis strain 168; settings: other: 37° C., pH 8, NAD
Text: (§1) Ligation products were transformed into E. coli DH5α cells.

[2] = substrate: O=C(O)C[C@H](O)C(=O)O; experiment: cells, lysate or membranes named; assay type: biochemical, Bacillus subtilis; settings: other: 37° C., pH 8, NAD
Experimental: (§2) Site-directed mutagenesis of the E. coli mdh and the B. subtilis mdh genes were carried out using the oligonucleotide pairs listed in Table 3 and the pET28-Ec-mdh and the pET28-Bs-mdh plasmids as the templates. Point mutations to change the amino acid sequence were introduced by PCR (Phusion 1U, HF buffer 20% (v/v), dNTPs 0.2 mM, direct and reverse primers 0.04 μM each, template plasmid 50 ng, water) using the oligonucleotide pairs listed in Table 3. Mutated genes contained a new restriction site listed in Table 3 (introduced using silent mutations) in addition to the functional mutation to facilitate identification of mutated clones. The PCR products were digested by DpnI at 37° C. for 1 h to remove template DNA, and transformed into competent E. coli DH5-alpha cells (NEB). The mutated plasmids were identified by restriction site analysis and verified to carry the desired mutations by DNA sequencing.
(§3) Mutant enzymes were expressed, purified and tested for DHB dehydrogenase activity as described in Example 1.

[3] = substrate: O=C(O)[C@@H](O)CCO; experiment: cells, lysate or membranes named; assay type: biochemical, Bacillus subtilis; settings: other: 37° C., pH 8, 10 mM NAD
Experimental: as §2, §3

[4] = substrate: C[C@H](O)C(=O)O; experiment: purified protein, by the assay type; settings: other: 37° C., pH 8, NAD, optionally 5 mM fructose-1,6-bisphosphate
[5] = substrate: O=C(O)C[C@H](O)C(=O)O; experiment: purified protein, by the assay type; settings: other: 37° C., pH 8, NAD
[6] = substrate: O=C(O)C[C@H](O)C(=O)O; experiment: cells, lysate or membranes named; settings: other: 37° C., pH 8, NAD
[7] = substrate: O=C(O)[C@@H](O)CCO; experiment: cells, lysate or membranes named; assay type: biochemical, Escherichia coli; settings: other: 37° C., pH 8, 10 mM NAD
Experimental: Activity of the cytosolic DHB dehydrogenases (Ec-Mdh, Bs-Mdh, Ll-LdhA) was assayed by following the DHB-dependent reduction of NAD^+.
The reaction mixture contained 60 mM Hepes (pH 8), 50 mM potassium chloride, 5 mM MgCl2, 10 mM NAD, (optionally, 5 mM fructose-1,6-bisphosphate (F16bP)) (all products from Sigma), and appropriate amounts of purified enzyme or cell extract. Reactions were started by adding 50 mM (L)-2,4-dihydroxybutyrate (Rhodia).
All enzymatic assays were carried out at 37° C. in 96-well flat bottomed microtiter plates in a final volume of 250 μL.

[8] = substrate: C[C@H](O)C(=O)O; experiment: purified protein, by the assay type; assay type: biochemical, Escherichia coli MG1655; settings: other: 37° C., pH 7, DCIP reduction
Experimental: as §1
(§4) Activity of the membrane-associated DHB dehydrogenase (Ec-LldD) was assayed by following the DHB-dependent reduction of 2,6-dichloroindophenol (DCIP). (L)-2,4-dihydroxybutyrate+DCIPox→2-oxo-4-hydroxybutyrate+DCIPred Reaction scheme 2:
(§5) Reactions were started by adding 20 mM (L)-2,4-dihydroxybutyrate (Rhodia).

[9] = substrate: O=C(O)[C@@H](O)CCO; experiment: purified protein, by the assay type; assay type: biochemical, Escherichia coli MG1655; settings: other: 37° C., pH 7, 0.06 mM DCIP
Experimental: as §1, §4, §5

[10] = substrate: C[C@H](O)C(=O)O; experiment: purified protein, by the assay type; assay type: biochemical, Escherichia coli; settings: other: 37° C., pH 7, DCIP reduction
Experimental: as §4, §5
(§6) Site-directed mutagenesis of the E. coli lldD gene was carried out using the oligonucleotide pairs listed in Table 5 and the pET28-Ec-lldD plasmid as the template.

[11] = substrate: O=C(O)[C@@H](O)CCO; experiment: purified protein, by the assay type; assay type: biochemical, Escherichia coli; settings: other: 37° C., pH 7, 0.06 mM DCIP
Experimental: as §4, §5, §6

Row | Protein | Km [6] [mM] | Km [7] [mM] | also measured
1 | B1 | – | – | Km [1]: 2.6 mM
2 | B2 | – | – | Km [2]: 6.8 mM; Km [3]: 5.4 mM
3 | B3 | – | – | Km [4]: 21.2 mM
4 | B4 | – | – | Km [5]: 0.56 mM
5 | B5 | 10.3 | 28 | –
6 | B6 | 11.2 | 20 | –
7 | B7 | 0.7 | 33 | –
8 | B8 | 2.2 | 29 | –
9 | B9 | 12.5 | 19 | –
10 | B10 | 8.5 | – | –
11 | B11 | 8.6 | 48 | –
12 | B12 | – | – | Km [8]: 0.13 mM; Km [9]: 1.31 mM
13 | B13 | – | – | Km [10]: 0.42 mM; Km [11]: 0.85 mM
